Measurements reported in patent US20140213531A1.

Target: Tryptase, from human lung (human) (UniProt Q15661)
Experiment: enzyme inhibition, pNA substrate

Sequence of Tryptase, from human lung (human) (Q15661 31-275 limits assumed): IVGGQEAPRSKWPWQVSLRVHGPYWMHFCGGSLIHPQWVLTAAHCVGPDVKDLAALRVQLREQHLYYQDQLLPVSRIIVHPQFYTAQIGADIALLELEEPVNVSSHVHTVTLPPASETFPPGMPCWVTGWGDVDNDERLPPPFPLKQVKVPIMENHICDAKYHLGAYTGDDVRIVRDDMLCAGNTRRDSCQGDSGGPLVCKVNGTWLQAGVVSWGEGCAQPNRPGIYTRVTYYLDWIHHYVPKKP

% inhibition at 100 µM: 5.6%
B1: Example 93 (peptide)
peptide: XCTASIPPQCS
HELM: PEPTIDE1{[Nle].C.T.A.S.I.P.P.Q.C.S.[dP].P}$PEPTIDE1,PEPTIDE1,2:R3-10:R3|PEPTIDE1,PEPTIDE1,1:R1-13:R2$$$V2.0
SMILES: CCCC[C@@H]1NC(=O)[C@@H]2CCCN2C(=O)[C@H]2CCCN2C(=O)[C@H](CO)NC(=O)[C@@H]2CSSC[C@H](NC1=O)C(=O)N[C@@H]([C@@H](C)O)C(=O)N[C@@H](C)C(=O)N[C@@H](CO)C(=O)N[C@@H]([C@@H](C)CC)C(=O)N1CCC[C@H]1C(=O)N1CCC[C@H]1C(=O)N[C@@H](CCC(N)=O)C(=O)N2
